Laboratory results reported in the supplement of paper PMC12455559.

Assay: purified protein yield per well (BCA); higher = higher soluble expression
Method: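 Candidate PET hydrolases were expressed in E. coli C41(DE3) in 2 mL autoinduction cultures in 24-deep-well plates, Ni-bead purified and released by SUMO protease cleavage on an OT-2 robot. Yield per well was measured by BCA; values below 25 ug (0.1 mg/mL) are below the detection threshold. Melting temperature was measured by differential scanning fluorimetry with Sypro Orange, ramping from 25 C at 0.3 C/step.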

Purified protein yield per well, < 25 µg:
AADNPYERGPAPTVSSIEAARGSYAVSQTSVSSLSVSGFGGGTVYYPSSTADGTFGAVVISPGFTAYQSSIAWLGPRLASQGFVVFTIDTNTTLDQPDSRGRQLLAALDYLTKSSSVRGRVDASRLGVMGHSMGGGGSLEAAKSRTSLKAAIPLTGWNADKTWPELRTPTLVVGADGDTVAPVSSHSEPFYQSLPSTLDKAYLELNGATHFTPNSSNTTIAKYSISWLKRFIDNDTRYEQFLCPLPRPSLTIEEYRGNCPHGS [TEP044]
AADNPYERGPDPTEQSVTAIRGPFNVAQTDVSRLAVTGFGGGTIYYPTDTSQGTFGAIAISPGFTAYWSSLSWLGPRLASQGFVVFGIETNTTLDQPAQRGQQLLAALDYLTQRSSVRSRVDASRLAVAGHSMGGGGTLEAAKSRTSLKAAIPIAPWNLDKTWPEVRTPTLIIGGELDSIAPVATHSKPFYSSLSNAPEKAYLELDNASHFFPQISNTTMAKYMISWMKRFIDNDTRYDQFLCPPPRAIGDISDYQDTCPHS [TEP031]
AANPYERGPAPTTAVLEAARGPFATTSAAIARTSSFGGGTVYYPTDTSQGTFGAVAISPGFSATQSSVAWYGPRLASHGFVVVTINTLSGWDDPDSRARQLLAALDYLTNTHAVRTRIDKTRLGVMGHSMGGGGALRASVSRPSLQAAIPLAPWHNTKNWSSDGVPTLIVGAENDTVAPVNQHAEPFYTSITGAPDKAYLELNNAGHSAPSSEGPNVTVGKFSVAWLKRFIDNDTRYEQFLCPAPRPDTRINEYRDTCPHS [TEP084]
AAPAHHAAPAHAAVHHHAPFALRTTVVPRTAVTKFGGGVIYEPRDTGKPVLGAVVITPGFTDTNADEKEYAELVASQGFVAFAIDTLDTGDIPADRATQMLAAVDWLTGSSPVKAEVSPDRVALLGYSFGGGGAMQAAQSRPSIKAVVGMMPFDAPPESDPNATTPAYPRMTTPTLVITGQEDDVADPKYFGKPAYDSIPAGTPKQYLELKGLGHGAGEHMPVPTVRTAVTAFLKRYLDGNSAYGRFICPAPKAVGPISASLSSCPRG [ESM110]
AAPATAPSVQRAAANPHERGPAPTEESITAEEGPFEFETIDVPAGSGDGFNQGTIYAPTDLSQGTFGAIAVSPGFVSPEALISWYGPRLASQGFVVMTIETNTLLDQPAARGDQLLAALDYLTGGDSPVRDRVDTGRLAVTGHSMGGGGTLEAARERPGLRAAVPLAPWNLNSDWSAVRTPTMILGAQNDFIAANGLHSEPFYEGLTSAPEKAYAEIANTGHMSFNTPNDVIAKYTIAWMKRYVDDDTRYERFLCPAPSDDPALVEYRDTCPGG [TEP002]
AAPHASTAHHHAPFAVRTTVVPRTADAKFGGGVIYEPQDTGKPVLGAVVITPGFTDTNADEKEMAELVASQGFVAFAIDTLDVGDLPDQRATEILAAADYLTGQSAVKSQVSAKDLAFLGYSMGGGGTFQAAQARPSVKAAIGLMPFDIPDANDPNATTPSYPKLTTPSLVVTGQKDDVADPEYFGKPIYDSIPVGTPKQYLELTGLGHGAGEHVPAPTIRVAVTAFLKRYLDGNSAYAKYICPAPKVGGPVSASLSSCPQG [ESM176]
AAPPVPQVAASPYERGPAPSEESVTAAEGPFEFETIDVPAGSGDGFNQGTIYAPTDRSQGTFGAIAVSPGFVSPEALVSWYGPRLASQGFVVMTIETNTVLDLPAMRGDQLLAALDYLTGAASPVADRVDPDRLAVMGHSMGGGGTLEAASRRTDLRAAVPLAPWNLTSDWSAVRTPTMILGAQNDFIAANGLHSEPFYEGLTSAPEKAYAELENTGHMSFNTPNDTIAKYTIAWMKRYVDDDARYERFLCPAPSDDPALIEYRDTCPGG [TEP149]
AAPVHHAVTRPVAAHHPVTRPVAGHAPPPSTVDQIVVPATADARFGGGTIFAPHGAGQKVLGSVIVTPGFHGRKSDMAVYGTELAAEGFVVFTIDTRERADLPAQRATEMLAAADYLTGRSAVKGEVSPDRVALLGYSMGGGGTLEAAQERPSIKAALTLMPYDYPPAGDPKAVHPAYPELTVPTLIITGQKDATAIPAKFGKPAYDSIPAGTPKQYLQLTGLGHAAGMGKPTATIRAAITAFLERYLDGDTAYAKDICPAPEVGGPISASTSSCPAG [ESM183]
AAPVHHAVTRPVAAHHPVTRPVPRPVVAHAPQPPAVDQIVVPATADARFGGGTIFAPRGAGQKVLGSVVVTPGFHGRKSDMAVYGTELAAEGFVVFTIDTRDRADLPDQRATEMLAAADYLTGRSAVKGEVSPDRVALLGYSMGGGGTLQAAQERPSIKAALTLMPYDYPPAGDPKAVHPAYPELTVPTLIITGQKDATAIPAKFGKPAYDSIPAGTPKQYLQLTGLGHAAGMGKPTATIRAAITAFLERYLDGDTAYAKDICPAPKVGGPISASTSSCGTS [ESM119]
AAPVHHPVTRPAPAHHQPAAAAVDQIVVPAAADARFGGGTIFAPRGAGQKVLGSVVVTPGFHGRKSDMAVYGTELAAEGFVVFTIDTRDRADLPDQRATEMLAAADYLTGRSAVKGEVSPDRVALLGYSMGGGGTLQAAQERPSIKAALTLMPYDYPPAGDPKAVHPAYPELTVPTLIITGQKDATAIPAKFGKPAYDSIPAGTPKQYLQLTGLGHAAGMGKPTVAIRAAVTAFLERYLDGDTAYAKQICPAPKVGGPISASISSCPAG [ESM150]
ADNPFERGPDPSESSIEAYRGAYSVSEQSVSRWVSGFGGGTIHYPTTRSDGTFGAVVVSPGYTGTESSISWLGPRLASQGFVVLTMVTNSIYDYPDSRARQLQAALDYLTSSSSGVADRIDPDRLALMGHSMGGGGTLRAVSENPDIKAAIPMTPWHTDKTWREVTTPTLIFGAENDTVAPHYSHAEPFYDSLPSSLEKVYLELDGASHFAPNYSNTTIAKYSISWLKRFVDDDTRYSQFLCPGPSFWDGDVQTYESTCDF [TEP197]
ADNPHERGPDPTESSIEALRGSYAVSERSVSRWVSGFGGGTIYYPTTTSDGDFGAVVISPGYTGTESTVAWLGPRLASQGFVVLTMATNSIYDQPDSRARQLQAALDYLTASSPVADRIDADRLALMGHSMGGGGTLRAVDDNPDIKAAIPMTPWHPQKDWSSVSTPTLIFAAENDSVARHETHAEPFYESFEQDLPKAYLELDGASHFAPNTSNTTIAKYSISWLKRFVDDDTRYTPFLCPGPSTGWLSDVEKYESSCPF [DP076]
ADNPYERGPAPTNSSIEASRGPFAVSETSVSSLVSGFGGGTIYYPTSTSAGTFGAVAISPGYTGTQSTMAWLGPRLASQGFVIFTIDTNSVYDQPDSRASQLLAALDYLTQQSTVRTRIDSSRLGVMGHSMGGGGTLRAASQRPSLQAAIPLTGWHTTKNWSSVRVPTLVVGAESDSVAPVSSHSEPFYTSLPSTLDKAYLELNNASHFAPNSSNTTIAKYSISWLKRFIDNDTRYEQFLCPAPGRSTLIEEYRDTCPHS [TEP028]
ADNPYERGPAPTNSSIEATRGPFAVSDTRVSSLVSGFGGGTIYYPTSTSSGTFGAVVISPGFTGTQSSIDWLGPRIASQGFVVFTIDTITIYDQPDSRASQLLAALDYLTQRSDVRSRIDASRLGVMGHSMGGGGTLRAAAQRPSLQAAIPLTGWHTTKNWSSVSVPTLVIGAESDSVAPVATHSEPFYTSLPSTLDKAYLELNNASHFAPNLPDTTIAKYSISWLKRFIDNDTRYEQFLCPGPGRSTQVEEYRNTCPNS [TEP025]
ADNPYERGPAPTRASIEAPRGPYAVSQTSVSSLLVSGFGGGTIYYPTSTSDGTFGAVVVTPGFTATESSMAWLGPRLASQGFVVFTIDTLTTLDQPDSRGRQMLAALDYLTERSSARTRIDGTRLGVIGHSMGGGGTLEAAKSRPSLKAAIPLTPWNLDKTWPEVTTPTLVVGADGDTVAPVATHAKPFYSTLPSTTDRAYLELNNATHFAPNISNTTIAKYSVSWLKRFIDDDTRYEQFLCPLPEPDRDIEEYRGTCPLGG [TEP162]
ADNPYERGPDPSWSSIEALRGPYTVDDTSVSRWVSGFGGGTIYYPDTTRDGDFGAAVISPGYTGTQSSIDWLGPRLASQGFVVLTIDTNSVYDQPDSRADQLQAALDYLTGSSDVADRIDPDRLALMGHSMGGGGTLRAVDDDPSIKAAIPMTPWHIKKNWSSVSTPTLIFGAERDSIAPHETHAEPFYDSLSRSLPKAYLELNNASHFAPNSSNTEIASISIAWLKRFVDDDTRYEQFVCPGPSGYAIEKYESSCPF [TEP128]
ADNPYERGPDPTEASIEAPRGPYAVAEKSVSALEATGFGGGTIHYPTSTAEGTFGAVAIAPGYTALQSSVAWLGPRLASQGFVVITIDTHTTVDQPASRGDQLLAALDHLTRRDSVRSRVDSGRLGVMGHSMGGGGSLEAAKDRPSLQAAIPLTGWNLDKTWSEVRVPTMLIGADGDTIAPVATHSQPFYESLPSTLDRAYLELNDAGHFTPNAPDTTIAKYSVSWLKRFIDNDTRYEQFLCPLPRPSRTIDEYRGNCPHTS [TEP143]
ADNPYERGPDPTEQLIESARGPFATAQTRVSSLSVTGFGGGVIYYPTDTSQGTFGAVAISPGFTADWTSLDWLGPRLASHGFVVIGIDTITRLDQPDSRGRQLLAALDYLTQRSSVRSRVDASRLAVAGHSMGGGGSLEAAKSRTSLKAAIPLAPWNLDKTWPEVVTPTMIFGGELDTVAPVSTHAIPFYNSLTNAREKAYLEIDNGSHFFPNVSNTLVAKYMISWLKRYVDNDTRYEQFLCPVPDDRGLSDSRGTCPGS [TEP135]
ADNPYERGPNPTESSIEATRGHYSVSEESVSSLAPGFGGGTIYYPTTRTDGTFGAVAVVPGYTASESSIEWLGARVASQGFVVFTIDTTTRLDQPAQRGDQLLAALDYLTERSDVADRVDPSRLAVMGHSMGGGGTLEAAKDRPSLKAIIPMTPWNLDKTWGDVEVPMLDFGAEYDSIASPASHAKPFYNTHGGEKMYIELNSAGHFAPNSSNTTIAKYSISWLKRWVDNDTRYTQFLCPTPTSWLYIEESASTCGF [TEP142]
ADNPYQRGPDPTERSVTARRGPFAIDEISVNGGIGAGFNRGTIFYPTDRSQGTFGAVAVIPGFLSPESLVRWFGPRLASQGFVVMTLTTNGLTDTPESRSEQLLAALDYLTTRSQVRDRIDPSRLAVMGHSMGGGGSLAAAAKRPTLRAAIPLAPWSLTKNWSNLTVPTLIIGAENDNVAPVAGHSERFYDSMTNVPEKAYLEMAGGNHVDPTAESDLVAKFTISWLKRFVDDDTRYDQFLCPAPRPNRQISEYRDTCPHS [DP029]
